For data set [1], the target named is human Brk1, in vitro translated, N-terminally tagged (PC-Brk1; the other copies in the self-association experiments are SBP-, Flag- or HA-Brk1) (human) (UniProt Q8WUW1). As to the kind of experiment: co-IP; PC-Brk1, SBP-Brk1 and HA-Wave2 co-translated in vitro; PC immunoprecipitation, then SBP precipitation or HA immunoprecipitation as a second step.
Data set [2] deals with the molecule itself. As to the kind of experiment: cross-linking; pooled SEC fractions of partially purified free untagged Brk1; glutaraldehyde 0.2% final or 2-fold dilutions, 50 mM Tris pH 8.0, 10 min, room temperature; Brk1 western blot. On the technique in general: Immunoblotting shows a protein as a band on a membrane.
Data set [3] deals with the molecule itself. As to the kind of experiment: co-IP; PC-, SBP-, Flag- and HA-Brk1 co-produced by in vitro translation with 35S-methionine; three sequential native precipitations (PC eluted with EDTA, SBP on streptavidin eluted with biotin, then Flag or HA); autoradiography.

What is called stoichiometry N is the number of molecules, sites or subunits per partner or assembly. The molecule “HA-Wave2, in vitro translated (from UniProt Q9Y6W5 1-498) (natural protein)” showed a stoichiometry N in data set [1] of 1.

B1: untagged Brk1 (free Brk1), partially purified from transfected 293T cells (natural protein, human, UniProt Q8WUW1 1-75, looked up)
chain: MAGQEDPVQREIHQDWANREYIEIITSSIKKIADFLNSFDMSCRSRLATLNEKLTALERRIEYIEARVTKGETLT
notes: Brick1 (Brk1, Hspc300), human, untagged cDNA; printed mass 8.7 kDa; that is not this construct; The fraction holds many other proteins but no Wave complex; also called Brick1; Hspc300; source: 293T, transfected with pCS2-Brk1, partially purified (35%-55% ammonium sulfate cut, SEC on superdex-200)
For B1, the “stoichiometry N” value in data set [2] came out at 3.

B2: human Brk1, in vitro translated, N-terminally tagged (PC-Brk1; the other copies in the self-association experiments are SBP-, Flag- or HA-Brk1) (natural protein, UniProt Q8WUW1 1-75, looked up)
chain: MAGQEDPVQREIHQDWANREYIEIITSSIKKIADFLNSFDMSCRSRLATLNEKLTALERRIEYIEARVTKGETLT
notes: Brick1 (Brk1, Hspc300), human; One molecule stands for the differently tagged copies of human Brk1 that were co-translated; also called SBP-Brk1; Flag-Brk1; source: in vitro translated (TnT, rabbit reticulocyte lysate, 35S-methionine), pCS2 plasmid; not shown: PC, N-terminal, kept
For the molecule B2, the “stoichiometry N” value in data set [3] was 3.

(Values after publication PMC2413427, “Free Brick1 Is a Trimeric Precursor in the Assembly of a Functional Wave Complex” (PLoS ONE, 2008).)
